Laboratory results as given in patent US20080260727A1.

Key:
8.3 TcR = assay: tetramer staining, flow cytometry on CD8+ T cells of 8.3 TcR-transgenic NOD mice
human NKG2D (human) [1] = target: human NKG2D (human) (UniProt P26718); assay: flow cytometry on NKL cells, biotin mAb on ice 30 min, then 16 h at 37° C., APC-streptavidin (antibody left on the surface after culture)
human NKG2D (human) [2] = target: human NKG2D (human) (UniProt P26718); assay: cell-based or functional assay
human NKG2D (human) [3] = target: human NKG2D (human) (UniProt P26718); assay: flow cytometry on NKL cells, biotin mAb on ice 30 min, APC-streptavidin, before culture (0 h)

UniProt P26718, sequence (P26718 whole entry T72A): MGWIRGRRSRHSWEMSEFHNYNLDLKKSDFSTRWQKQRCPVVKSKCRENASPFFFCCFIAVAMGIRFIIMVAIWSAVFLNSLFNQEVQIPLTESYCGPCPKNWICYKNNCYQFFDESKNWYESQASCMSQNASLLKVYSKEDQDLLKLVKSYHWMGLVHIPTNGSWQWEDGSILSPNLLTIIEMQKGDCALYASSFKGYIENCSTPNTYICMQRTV

With “NRP-V7/H-2K^d tetramer (from UniProt P01902 22-305) (peptide-MHC)” the percent of CD8+ T cells tetramer positive (8.3 TcR) was over 90%.
Substance “mouse anti-human NKG2D mAb (R&D Systems clone 149810) (antibody)” has a mean fluorescence intensity (arbitrary units) (arbitrary units) (human NKG2D (human) [1]) of 61, a decrease in expression of NKG2D on the cell surface (human NKG2D (human) [2]) of 67% and a mean fluorescence intensity (arbitrary units) (arbitrary units) (human NKG2D (human) [3]) of 186.
